# Measurements reported in patent CN1652821A (dated 2005).
# How the values were obtained:
# LNCaP细胞上表达的PSMA = target: T1, LNCaP细胞上表达的PSMA (human, UniProt Q04609 1-750); experiment: Scatchard analysis, 111In-DOTA-labelled antibody binding to a fixed number of LNCaP cells
# T1 construct: whole, on cells; Endogenous PSMA of LNCaP cells; also used for the LNCaP membrane-fraction ELISA; also called PSMA on LNCaP cells; LNCaP细胞膜
# 细菌表达的含有PSMA氨基酸1-173的融合蛋白 = target: T2, 细菌表达的含有PSMA氨基酸1-173的融合蛋白 (human, UniProt Q04609 1-173); experiment: solid-phase ELISA on bacterially expressed PSMA fragment fusion proteins
# T2 construct: Bacterially expressed fusion protein
# T2 sequence (Q04609 1-173): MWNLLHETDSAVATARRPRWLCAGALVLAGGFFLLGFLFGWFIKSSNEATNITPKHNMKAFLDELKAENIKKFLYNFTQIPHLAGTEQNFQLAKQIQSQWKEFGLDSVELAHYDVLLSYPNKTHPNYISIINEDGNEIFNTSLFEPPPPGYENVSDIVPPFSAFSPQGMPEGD
# [1] = target: T3, 细菌表达的含有PSMA氨基酸438-750的融合蛋白 (human, UniProt Q04609 438-750); experiment: as above
# T3 construct: range 438-750; Bacterially expressed fusion protein; also called PSMA 438-750 fusion protein
# T3 sequence (Q04609 438-750): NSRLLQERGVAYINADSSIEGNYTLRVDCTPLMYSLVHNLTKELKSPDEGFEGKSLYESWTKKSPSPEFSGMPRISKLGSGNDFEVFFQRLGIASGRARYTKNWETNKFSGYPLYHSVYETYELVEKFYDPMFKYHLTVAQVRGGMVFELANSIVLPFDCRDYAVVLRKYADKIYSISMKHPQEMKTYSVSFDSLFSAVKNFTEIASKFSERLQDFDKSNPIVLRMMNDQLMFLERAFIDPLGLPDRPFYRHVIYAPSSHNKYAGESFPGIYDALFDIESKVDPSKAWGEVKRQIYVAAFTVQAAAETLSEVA
# [2] = target: T4, 细菌表达的含有PSMA氨基酸134-437的融合蛋白 (human, UniProt Q04609 134-437); experiment: as above
# T4 construct: Bacterially expressed fusion protein
# T4 sequence (Q04609 134-437): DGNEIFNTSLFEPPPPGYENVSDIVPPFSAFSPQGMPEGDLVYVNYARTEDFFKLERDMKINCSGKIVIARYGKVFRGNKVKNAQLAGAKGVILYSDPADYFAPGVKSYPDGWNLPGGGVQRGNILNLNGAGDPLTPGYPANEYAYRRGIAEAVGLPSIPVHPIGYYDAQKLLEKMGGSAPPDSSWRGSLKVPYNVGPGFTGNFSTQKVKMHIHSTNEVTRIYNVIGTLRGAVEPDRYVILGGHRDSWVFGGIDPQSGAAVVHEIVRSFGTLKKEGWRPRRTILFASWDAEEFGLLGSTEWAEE
# T1 sequence (Q04609 whole entry): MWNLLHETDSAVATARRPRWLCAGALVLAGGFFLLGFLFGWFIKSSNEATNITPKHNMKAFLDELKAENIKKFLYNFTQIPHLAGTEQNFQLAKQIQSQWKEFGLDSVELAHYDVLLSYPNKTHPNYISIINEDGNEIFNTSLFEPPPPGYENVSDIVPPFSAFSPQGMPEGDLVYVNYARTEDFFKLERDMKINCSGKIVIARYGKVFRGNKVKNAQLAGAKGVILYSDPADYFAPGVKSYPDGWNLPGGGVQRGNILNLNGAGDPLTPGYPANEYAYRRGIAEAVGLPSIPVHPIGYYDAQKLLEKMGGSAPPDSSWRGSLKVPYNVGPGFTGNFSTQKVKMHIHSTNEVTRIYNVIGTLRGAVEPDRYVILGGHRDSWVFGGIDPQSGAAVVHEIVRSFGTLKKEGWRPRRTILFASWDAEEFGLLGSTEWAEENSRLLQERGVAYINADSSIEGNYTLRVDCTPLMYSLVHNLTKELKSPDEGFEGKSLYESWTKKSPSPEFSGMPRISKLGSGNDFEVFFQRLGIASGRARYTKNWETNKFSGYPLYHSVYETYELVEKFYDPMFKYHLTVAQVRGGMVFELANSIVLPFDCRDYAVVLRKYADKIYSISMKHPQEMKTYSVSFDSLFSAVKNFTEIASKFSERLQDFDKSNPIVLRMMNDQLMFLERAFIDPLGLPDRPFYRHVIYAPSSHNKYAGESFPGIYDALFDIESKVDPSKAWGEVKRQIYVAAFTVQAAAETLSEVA
binder,measurement,setting,value
"DOTA-标记的4A3 (antibody, IgG1, V domains shown, DOTA coupled through one carboxyl group to protein amino groups, sites not stated; 111In chelated in the Scatchard study, 4A3 IgG1 kappa conjugated with DOTA; also called DOTA-4A3; 111 In-DOTA-标记抗体 4A3) VH: EVQLVQSGAEVKKPGESLKISCKGSGYSFTSYWIGWARQMPGKGLEWMGIIYPGDSDTRYSPSFQGQVTISADKSISTAYLQWSSLKASDTAMYYCSAANSSHWYFDLWGRGTLVTVSS VL: EIVLTQSPATLSLSPGERATLSCRASQSVSSYLAWFQQKPGQAPRLLIYDASNRATGIPARFSGSGSGTDFTLTISSLEPEDFAVYYCQQRSNWLMYTFGQGTKLEIK",Kd,LNCaP细胞上表达的PSMA,500 pM
"人单克隆抗体(HuMAb)4A3 (antibody, V domains shown, Human IgG1 kappa (γ1,κ) from a hybridoma of HuMAb mouse #17018) VH: EVQLVQSGAEVKKPGESLKISCKGSGYSFTSYWIGWARQMPGKGLEWMGIIYPGDSDTRYSPSFQGQVTISADKSISTAYLQWSSLKASDTAMYYCSAANSSHWYFDLWGRGTLVTVSS VL: EIVLTQSPATLSLSPGERATLSCRASQSVSSYLAWFQQKPGQAPRLLIYDASNRATGIPARFSGSGSGTDFTLTISSLEPEDFAVYYCQQRSNWLMYTFGQGTKLEIK",binding result,细菌表达的含有PSMA氨基酸1-173的融合蛋白,no binding
same,binding result,[1],no binding
same,binding result,[2],no binding
"DOTA-标记的7F12 (antibody, IgG1, V domains shown, DOTA coupled through one carboxyl group to protein amino groups, sites not stated; 111In chelated in the Scatchard study, 7F12 IgG1 kappa conjugated with DOTA; also called DOTA-7F12; 111 In-DOTA-标记抗体 7F12) VH: AVQLVQSGAEVKKPGESLKISCKGSGYSFTSFWIGWARQMPGKGLEWMGIIYPGDSDTRYSPSFQGQVTISADKSISTAYLQWSSLKASDTAMYYCATANSSFWNFDLWGRGTLVTVSS VL: EIVLTQSPATLSLSPGERATLSCRASQSVSSYLAWYQQKPGQAPRLLIYDASNRATGIPARFSGSGSGTDFTLTISSLEPEDFAVYYCQQRSNWLMYTFGQGTKLEIK",Kd,LNCaP细胞上表达的PSMA,500 pM
"人单克隆抗体(HuMAb)7F12 (antibody, V domains shown, Human IgG1 kappa (γ1,κ) from a hybridoma of HuMAb mouse #17018) VH: AVQLVQSGAEVKKPGESLKISCKGSGYSFTSFWIGWARQMPGKGLEWMGIIYPGDSDTRYSPSFQGQVTISADKSISTAYLQWSSLKASDTAMYYCATANSSFWNFDLWGRGTLVTVSS VL: EIVLTQSPATLSLSPGERATLSCRASQSVSSYLAWYQQKPGQAPRLLIYDASNRATGIPARFSGSGSGTDFTLTISSLEPEDFAVYYCQQRSNWLMYTFGQGTKLEIK",binding result,细菌表达的含有PSMA氨基酸1-173的融合蛋白,no binding
same,binding result,[1],no binding
same,binding result,[2],no binding
